Laboratory results from patent US20240218024A1, “METHODS AND COMPOSITIONS FOR TREATMENT OF VIRAL INFECTION” (TECHNION RESEARCH & DEVELOPMENT FOUNDATION LIMITED, priority 2021, published 2024).

B1: PCP-3×: class I slncRNA with three PCP binding hairpins (SEQ ID NO: 23) (nucleic acid)
chain: GAGAAACGTTTCGACATTATATGGAATGCGAAACACGGAGGATGCGGGAAACATGAAGATCACTCATGTTCGCTTAACCATGGATAGGGATCACCCATGTTGCGGTGGTGCGTCAACCAGAGATTTCATATGGGAAACTCTGGGACACGCTGTATTTATACATGAGGATCACCATGTGTGCTTAAATATGGGTAATTCCAGTTTATATGGAAACGGA
B2: PCP-4×/MCP-4×: class II slncRNA with four PCP binding sites spaced by non-PCP hairpins (SEQ ID NO: 26) (nucleic acid)
chain: GAGAAACGTTTCGACATTATATGGAATGCGAAAGTGGAACGTAATGGACATGAAGACGATTACGCTTCACACGGAGGATGCGGGAAACATGAAGATCACCCATGTTCGCTTAACCATGGATAGGGATCACCCATGTTGCGGTGGTGCGTCAACCAGAGATTTCATATGGGAAACTCTGGGACACGCTGTATTTATACATGAGGATCACCATGTGTGCTTAAATATGGGTAAGTTGACCATTAGGCAACTGTAAGATGCTCCGGTTAATTCCAGTTTATATGGAAACGGAATTGATGTACCGTTGAGCAAGAACACGATTACGGTTCTTCGATTAGATATGGTTTAAACGACAATATATGGATTGCGTTTTGGGGCACGCCGTCTGGAGAAGACCATTAGGCTTCTTTACTGCGATGGGTGGGAGGTAGAGGGATTCTCGCGAGAAGAA
B3: PCP-8×: class I slncRNA with eight PCP binding hairpins (SEQ ID NO: 27) (nucleic acid)
chain: GAGAAACGTTTCGACATTATATGGAATGCGAAACACGGAGGATGCGGGAAACATGAAGATCACCCATGTTCGCTTAACCATGGATAGGGATCACCCATGTTGCGGTGGTGCGTCAACCAGAGATTTCATATGGGAAACTCTGGGACACGCTGTATTTATACATGAGGATCACCATGTGTGCTTAAATATGGGTAATTCCAGTTTATATGGAAACGGAATTAGGCTAGAGCATGGCGGTATTGAGTTCGGGTTTGAAACGACAATATATGGATTGCGTTTTGGGGCACGCCGTCTGGAAAGGAGATTATATGAAATCCCTTTGCGCGCAACCGGGTAGATACGAGTCAATATGGTGACCGTACCTTGGTGGGGAAGCGATAAGCACATTATAAGGAATGGCTTAGTGCTAGACCCTGGTCTTTTCGAGAAAATATGGTTTCCGAAAATGGGTGGGAGGTAGAGGGATTCTCGCGAGAAGAA
B4: PCP-14×/MCP-15×: class II slncRNA with fourteen PCP binding sites spaced by hairpins that do not bind PCP (SEQ ID NO: 28) (nucleic acid)
chain: GAGAAACGTTTCGACATTATATGGAATGCGAAAGTGGAACGTAATGGACATGAAGACGATTACGCTTCACACGGAGGATGCGGGAAACATGAAGATCACCCATGTTCGCTTAACCATGGATAGGGATCACCCATGTTGCGGTGGTGCGTCAACCAGAGATTTCATATGGGAAACTCTGGGACACGCTGTATTTATACATGAGGATCACCATGTGTGCTTAAATATGGGTAAGTTGACCATTAGGCAACTGTAAGATGCTCCGGTTAATTCCAGTTTATATGGAAACGGAATTGATGTACCGTTGAGCAAGAACACGATTACGGTTCTTCGATTAGATATGGTTTAAACGACAATATATGGATTGCGTTTTGGGGCACGCCGTCTGGAGAAGACCATTAGGCTTCTTTACTGCGACCGCAATAAAAGGAGATTATATGAAATCCCTTTGCGCGCAACCGGGTAGAAGATCACCATTAGGGATCTGTAACTCACGGCGCTATTACGAGTCAATATGGTGACCGTAAAGCTAGGGCATGTGCCAGAAGAGCATTAGCCTTCTCCTTGGTGGGGAAGCGATAAGCACATTATAAGGAATGGCTTAAAGTGGTGCGGCGGGGGACTTGACCATTAGGCAAGTGTGCTAGACCCTGGTCTTTTCGAGAAAATATGGTTTCCGAAAGAACTATACGAAGTGACATGCGAGGATTACCCGCATATGGTGCAAATGGGAGAATTGGAGTAAATATGGTTACCCAATAGGCTAGAGCATGACGGCAGTGAGAATTATCCACTGGTTAGCGGGTTACCGAGATTGCACATTATATGGAATGGCAATTGATTCATGCCGGTCGTTTGTGAGGAGTACCCACAAAATGGGAGGGTGCTATATAACCAGGTTATATGCAACCGGTTAGGCCGTTGTGTTAGTTTAGTTCAGCATTAGCGAACTGTGCAAGACCCGGTGGCTAAGGAGTTTATATGGAAACCCTTAGCCCTCGAGCATGCTAACATGAGGATTACCCATGTGATGGGTTTGAAACGTGCAATTATTTGATATGGCAAAAATTGGGTAGGGCATGGCTGCAGCGTGAGAATTATCCACGCTAGGCTAGAGCATGGCGGTATTGAGTTCGGGTTTGAGATGACCATTAGGCATCTGTGCTAGAGCATGCGAAAACGACATAATATGGTATGCGTTTTGGGGTGCTAGTATACCACATGATGAGCACACATGTATGGGTGGGAGGTAGAGGGATTCTCGCGAGAAGA
B5: PCP-3×/MCP-3×: class II slncRNA with three PCP binding sites spaced by non-PCP hairpins (SEQ ID NO: 25) (nucleic acid)
chain: GAGAAACGTTTCGACATTATATGGAATGCGAAAGTGGAACGTAATGGACATGAAGACGATTACGCTTCACACGGAGGATGCGGGAAACATGAAGATCACCCACGCTTAACCATGGATAGGGATCACCCATGTTGCGGTGGTGCGTCAACCAGAGATTTCATATGGGAAACTCTGGGACACGCTGTATTTATACATGAGGATCACCATGTGTGCTTAAATATGGGTAAGTTGACCATTAGGCAACTGTAAGATGCTCCGGTTAATTCCAGTTTATATGGAAACGGAATTGATGTACCGTTGAGCAAGAACACGATTACGGTTCTTCGATTAGATATGGGGTGGGAGGTAGAGGGATTCTCGCGAGAAGA
B6: PCP-4×: class I slncRNA with four PCP binding hairpins (SEQ ID NO: 24) (nucleic acid)
chain: GAGAAACGTTTCGACATTATATGGAATGCGAAACACGGAGGATGCGGGAAACATGAAGATCACTCATGTTCGCTTAACCATGGATAGGGATCACCCATGTTGCGGTGGTGCGTCAACCAGAGATTTCATATGGGAAACTCTGGGACACGCTGTATTTATACATGAGGATCACCATGTGTGCTTAAATATGGGTAATTCCAGTTTATATGGAAACGGAATAAGATTAGATATGGTTTAAACGACAATATATGGATTGCGTTTTGGGGCACGCCGTCTGGTTACTGCGATGGGTGGGAGGTAGAGGGATTCTAAGCTTAAGA

Experiments:
[1] = In vitro slncRNA and slncRNA-protein granule formation (fluorescence microscopy); type: physicochemical; conditions: for Poisson parameter λ best fit of condensate fluorescence intensity distribution: slncRNA-only condensates
[2] = Temporal tracking of individual SRNP granules in vitro (burst analysis); type: physicochemical; conditions: SRNP granules with tdPCP-mCherry, 60 minutes tracking
Method: To test whether the synthetic granules display this characteristic, we tracked the fluorescence intensity of each granule in a given field-of-view for 60 minutes. The brightness of each granule was analyzed at every time point using a customized analysis algorithm (see Supplementary Methods). The resulting signals are either decreasing or increasing in overall intensity, and dispersed within them are sharp variations in brightness, that are also either increasing or decreasing. Next, we employed a statistical threshold which flagged these signal variation events, or “signal bursts”, whose amplitude was determined to not be part of the underlying signal distribution (p-value<1e-3) (See Supplementary Methods for definitions of bursts, algorithm details, and relevant numerical controls). The events were classified as either increasing bursts (green), decreasing bursts (red), or non-classified segments (blue), which are segments where molecular movement cannot be discerned from the noise (FIG. 8A). For each detected burst, its amplitude (A intensity) and duration (A time) were measured, in addition to measuring the time between bursts and the order of their appearance. In FIG. 8B the distributions of amplitudes for all three event types were plotted, obtained from ˜156 signal traces, each gathered from a different granule composed of PCP-14×/MCP-15× and tdPCP-mCherry. We observe a bias towards negative burst or shedding events. Assuming an interpretation that fluorescent burst events correspond to insertion and shedding events of slncRNA-CP complexes into or out of the synthetic granules, the amplitude bias towards negative events is consistent with RNA degradation and lack of transcription within the in vitro suspension, leading to a net shedding of slncRNA molecules out of the granules over time.
The tracking data, (x,y,t coordinates of the bright spots centroids), together with the raw microscopy images were fed to a custom built Matlab (The Mathworks, Natick, MA) script designed to normalize the relevant spot data. Normalization was carried out as follows: for each bright spot, a 14-pixel wide sub-frame was extracted from the field of view, with the spot at its center. Each pixel in the sub-frame was classified to one of three categories according to its intensity value. […]
We assume the total fluorescence is comprised of three distinct signal processes: RNP granule fluorescence, background fluorescence and noise. We further assume that background fluorescence is slowly changing, as compared with granule fluorescence which depends on the dynamic and frequent insertion and shedding events occurring in the droplet. […] To identify such shifts in the base-line fluorescence intensity, we use a moving-average filter of 13 points (i.e., 2 minutes) to smooth the data. […]

[3] = SRNP granules with tdPCP-mCherry

| Molecule | ratio between mean granule fluorescence and mean burst amplitude, red channel (protein) [2] | Poisson parameter λ best fit of condensate fluorescence intensity distribution [1] | also measured |
| --- | --- | --- | --- |
| B1 | – | – | formation of fluorescent condensates, slncRNA only ([1]; 8.5 nM slncRNA, granule forming buffer, 1 hour room temperature): no such structures were detected; median mCherry fluorescence of SRNP granules relative to PCP-14×/MCP-15× granules [1, 3]: half as bright; granule formation / colocalization with tdPCP-mCherry ([1]; slncRNA plus 25 nM tdPCP-mCherry): witnessed in the presence of the protein |
| B2 | approximately equal to that of the green channel | – | – |
| B3 | ~2 | – | – |
| B4 | approximately equal to that of the green channel | 3-5 | median mCherry fluorescence of SRNP granules, brighter than PCP-4×/MCP-4× granules [1, 3]: ~3 times; median mCherry fluorescence of SRNP granules, brighter than PCP-8× granules [1, 3]: > 2 fold; slncRNA and protein concentrations at which puncta like structures were detected ([1]; SRNP granules with tdPCP-mCherry, both components varied over two orders of magnitude): ≥ 100 ng/µL |
| B5 | approximately equal to that of the green channel | – | – |
| B6 | – | 0 | – |
